Results taken from patent US20190127480A1 (Regeneron, published 2019).

Key:
[1] = target: T1, human PSMA expressed with an N-terminal hexahistidine tag (6h.hPSMA, R&D) (human, UniProt Q04609 44-750); test: SPR Biacore T-200, 37 C, antibody-capture (anti-human Fc), 6h.hPSMA as analyte
T1 construct: Bought soluble protein; also called soluble human PSMA; human PSMA protein
Method: In this example, anti-PSMA antibodies were assessed for their ability to bind to human PSMA. […] Measurements were conducted on a Biacore™ T-200 instrument (GE Healthcare).
Briefly, a CM5 Biacore™ sensor surface was derivatized via amine coupling with a monoclonal mouse anti-human Fc antibody (GE, # BR-1008-39) or monoclonal goat anti-mouse Fc antibody (GE, # BR-1008-38) to capture purified anti-PSMA antibodies. Binding studies were performed in HBSP++ buffer composed of 0.01M HEPES, 0.15M NaCl, 2 mM Ca²⁺, 2 mM Mg²⁺, 0.05% v/v Surfactant P20, pH7.4. Varying concentrations of human PSMA expressed with an N-terminal hexahistidine tag (6h.hPSMA, R&D) prepared in HBSP++ running buffer (ranging from 50 to 0.78 nM, 4-fold dilutions) were injected over the anti-PSMA antibody captured surface at a flow rate of 30 μL/minute. Antibody-reagent association was monitored for 2 minutes while dissociation in HBSP++ running buffer was monitored for 8 minutes.
(§1) Kinetic association (kₐ) and dissociation (kd) rate constants were determined by fitting the real-time sensorgrams to a 1:1 binding model using Scrubber 2.0c curve fitting software. Binding dissociation equilibrium constants (KD) and dissociative half-lives (t½) were calculated from the kinetic rate constants as: KD (M)=kd/kₐ; and t_{1/2} (min)=(ln 2/(60*kd).

[2] = target: T2, Soluble heterodimeric CD3 protein (hCD3-epsilon/hCD3-delta) with either a human Fc tag (hFcΔAdp/hFc) or a … (human, UniProt P07766 23-126; P04234 22-105); test: SPR Biacore 25C antibody-capture, 1-arm
T2 construct: also called hCD3ε/δ; not shown: Fc tag: human (hFcΔAdp/hFc)
Method: Soluble heterodimeric CD3 protein (hCD3-epsilon/hCD3-delta; SEQ ID NOs:1652/1653) with either a human Fc tag (hFcΔAdp/hFc; SEQ ID NOs:1683/1684) or a mouse Fc tag (mFcΔAdp/mFc; SEQ ID NOs:1685/1686) was injected over the antibody captured surface and the binding response was recorded. Heterodimeric CD3 protein was purified using the method described in Davis et al. (US2010/0331527).
as §1, with “by processing and” for “by”, “data” for “real-time sensorgrams”, “2.0” for “2.0c”, “(t₁₁₂)” for “(t½)”, “2/(60*kd). NT=not tested; NB=no binding observed.” for “2/(60*kd).”

[3] = target: T2, Soluble heterodimeric CD3 protein …; test: SPR Biacore 25C antigen-capture, 1-arm
Method: In the antigen-capture format, heterodimeric CD3 protein was captured using a rabbit anti-mouse Fc or mouse anti-human Fc and the respective antibodies were injected over the captured antigen.
as §1, with “by processing and” for “by”, “data” for “real-time sensorgrams”, “2.0” for “2.0c”, “(t₁₁₂)” for “(t½)”, “2/(60*kd). NT=not tested; NB=no binding observed.” for “2/(60*kd).”

T1 sequence (Q04609 other isoform, or with tags, fused parts or gaps limits assumed): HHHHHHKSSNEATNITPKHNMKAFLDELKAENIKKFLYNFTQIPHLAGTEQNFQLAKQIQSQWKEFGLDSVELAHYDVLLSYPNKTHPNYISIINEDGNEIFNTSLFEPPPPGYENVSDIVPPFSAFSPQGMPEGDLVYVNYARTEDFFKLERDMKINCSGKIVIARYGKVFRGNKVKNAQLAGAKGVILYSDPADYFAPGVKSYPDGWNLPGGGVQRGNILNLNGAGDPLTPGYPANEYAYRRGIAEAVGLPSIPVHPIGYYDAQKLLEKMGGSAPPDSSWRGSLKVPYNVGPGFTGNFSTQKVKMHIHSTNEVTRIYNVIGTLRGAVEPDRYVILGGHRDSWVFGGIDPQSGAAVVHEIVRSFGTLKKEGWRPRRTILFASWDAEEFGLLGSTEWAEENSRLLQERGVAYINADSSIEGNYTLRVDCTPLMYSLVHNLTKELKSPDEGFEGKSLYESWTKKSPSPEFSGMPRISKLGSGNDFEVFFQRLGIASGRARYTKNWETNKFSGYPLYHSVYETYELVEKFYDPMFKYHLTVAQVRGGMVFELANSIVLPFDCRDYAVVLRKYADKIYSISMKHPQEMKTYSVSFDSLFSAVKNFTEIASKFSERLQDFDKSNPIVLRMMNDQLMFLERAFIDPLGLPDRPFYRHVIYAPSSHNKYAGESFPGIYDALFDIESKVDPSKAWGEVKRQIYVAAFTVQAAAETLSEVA
T2 sequence (P07766 23-126 limits assumed, stated change not applied, chain 1 of 2): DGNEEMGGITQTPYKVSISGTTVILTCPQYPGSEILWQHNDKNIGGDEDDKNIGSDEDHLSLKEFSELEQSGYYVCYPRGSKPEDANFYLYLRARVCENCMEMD
T2 sequence (P04234 22-105 limits assumed, stated change not applied, chain 2 of 2): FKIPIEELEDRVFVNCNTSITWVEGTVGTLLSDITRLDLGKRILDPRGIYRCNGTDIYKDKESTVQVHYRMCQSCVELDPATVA

Binder	Kd [1]	koff [1]	kon [1]	t1/2 [1]	Kd [2]	T½ [2]	koff [2]	kon [2]	Kd [3]	T½ [3]	koff [3]	kon [3]
H1H3465P (antibody, human IgG1, V domains shown, human IgG1; also called PSMA-VH-3465 (its HCVR)) VH: QVQLVESGGGVVQPGRSLRLSCAASGFTFITYGMHWVRQAPGKGLEWVAIIYYDESNKYYADSVKGRFTISRDISKNTLYLQMNGLRAEDTAVYYCARAPRVAVEEDYSYYYGMDVWGQGTTVTVSS VL: DIQMTQSPSSLSASVGDRVTITCRASQGIRNDLGWYQQKPGRAPKRLIYGASNLQSGVPSRFSGSGSGTEFTLTISSLQPEDFATYYCLQHNSHPYTFGQGTKLEIK	0.227 nM	6.06e-05 s⁻¹	267000 M⁻¹ s⁻¹	191 min								
H1H11792P2 (antibody, human IgG1, V domains shown, human IgG1) VH: QVQLVESGGGVVQPGRSLRLSCAASGFTFSSYGMHWVRQPPGKGLEWVAIMSYDGSNKYYADSVKGRFTISRDNSKNTLYLQMNSLRVEDTAVYYCAKDQYYDFLTFDYTLDYWGQGTLVTVSS VL: DIQMTQSPSSLSASVGDSVTITCRASQSINNYLNWYQQKPGKAPKLLIYTASSLLSGVPSRFSGSGSGTDFTLTISGLHPEDFATYFCQQSFSTPPITFGQGTRLDIK	0.205 nM	9.7e-05 s⁻¹	473000 M⁻¹ s⁻¹	119 min								
H1H11800P2 (antibody, human IgG1, V domains shown, human IgG1) VH: QVQLVESGGGVVQPGRSLRLSCAASGFTFSSYGMHWVRQAPGKGLEWVAVISYAGNNKYYVDSVKGRFTISRDNSKNTLYLQMNSLRAEDTAVYYCAKDPYYDFLTGSDYFDYWGQGTLVTVSS VL: DIQMTQSPSSLSASVGDSVTITCRASQSINNYLNWYQQKPGKAPKLLIYTASSLLSGVPSRFSGSGSGTDFTLTISGLHPEDFATYFCQQSFSTPPITFGQGTRLDIK	0.163 nM	4.1e-05 s⁻¹	251000 M⁻¹ s⁻¹	282 min								
H1H11837P2 (antibody, human IgG1, V domains shown, human IgG1) VH: QVQLVESGGGVVQPGRSLRLSCAASGFTFSSYGMHWVRQAPGKGLEWVTFISYDGNNKYYSDSVKGRFAISRDNSKNTLYLQMNSLRAEDTSVYFCAKDQYYDFLTDFGVFDYWGQGTLVTVSS VL: DIQMTQSPSSLSASVGDSVTITCRASQSINNYLNWYQQKPGKAPKLLIYTASSLLSGVPSRFSGSGSGTDFTLTISGLHPEDFATYFCQQSFSTPPITFGQGTRLDIK	1.66 nM	0.000734 s⁻¹	441000 M⁻¹ s⁻¹	15.7 min								
H1H11803P2 (antibody, human IgG1, V domains shown, human IgG1) VH: QVQLVESGGGVVQPGRSLRLSCAASGFTFSSYGMHWVRQAPGKGLEWVAVIWYDGNNKYYADSVKGRFTISRDNSKKTLYLQMTSLRAEDTAVYYCARDQYYDILTADNTLDYWGQGTLVTVSS VL: DIQMTQSPSSLSASVGDSVTITCRASQSINNYLNWYQQKPGKAPKLLIYTASSLLSGVPSRFSGSGSGTDFTLTISGLHPEDFATYFCQQSFSTPPITFGQGTRLDIK	1.33 nM	0.000608 s⁻¹	457000 M⁻¹ s⁻¹	19 min								
H1H11836P2 (antibody, human IgG1, V domains shown, human IgG1) VH: QVQLVESGGGVVQPGRSLRLSCAASGFTFRSYGMHWVRQAPGKGLEWVAFISYDESNKHQADSVKGRFTISRDNSKNTLYLQMNSLRAEDTAVYFCAKDQYYDFLTAYDTLDYWGQGTLVTVSS VL: DIQMTQSPSSLSASVGDSVTITCRASQSINNYLNWYQQKPGKAPKLLIYTASSLLSGVPSRFSGSGSGTDFTLTISGLHPEDFATYFCQQSFSTPPITFGQGTRLDIK	0.855 nM	0.00028 s⁻¹	327000 M⁻¹ s⁻¹	41.3 min								
H1H7241P (monovalent 1-arm) (antibody, human IgG1, V domains shown, Monovalent 1-arm: second Fab removed, only the Fc portion (CH2-CH3) expressed; human IgG1 Fc; tied by numerical identifier; also called H1H7241B) VH: EVQLVESGGGLVQPGRSLRLSCAASGFTFADYTMHWVRQGPGKGLEWVSDIGWNSNTIGYADSVKGRFAISRDNAKNSLYLQMNSLRPEDTALYYCVKDKSGYGKFQYGLDVWGQGTTVTVSS VL: not shown					22 nM	39 min	0.000295 s⁻¹	13400 M⁻¹ s⁻¹	1.26 nM	49 min	0.000236 s⁻¹	187000 M⁻¹ s⁻¹
H1H7250P (monovalent 1-arm) (antibody, human IgG1, V domains shown, Monovalent 1-arm: second Fab removed, only the Fc portion (CH2-CH3) expressed; human IgG1 Fc; tied by numerical identifier; also called H1H7250B) VH: QVQLVESGGGLVQPGRSLRLSCAASGFTFDDYTMHWVRQGPGKGLEWVSDIGWNSNTKGYADSVKGRFTISRDNAKNSLYLQMNSLRPEDTALYFCVKDKSGYGKFFIGLDVWGQGTMVTVSS VL: not shown					10.5 nM	47 min	0.000247 s⁻¹	23400 M⁻¹ s⁻¹	0.82 nM	61 min	0.000189 s⁻¹	231000 M⁻¹ s⁻¹
H1H7251P (monovalent 1-arm) (antibody, human IgG1, V domains shown, Monovalent 1-arm: second Fab removed, only the Fc portion (CH2-CH3) expressed; human IgG1 Fc; tied by numerical identifier; also called H1H7251B) VH: EVQLVESGGGLVQPGRSLRLSCAASGFTFADYTMHWVRQGPGTGLEWVSDIGWSGGSLGYADSVKGRFTISRDNAKNSLYLEMNNLRPEDTALYYCVKDKSGYGKFQYGLDVWGQGTTVTVSS VL: not shown					41.7 nM	11 min	0.00107 s⁻¹	25600 M⁻¹ s⁻¹	2.67 nM	10 min	0.00119 s⁻¹	447000 M⁻¹ s⁻¹
H1H7258P (monovalent 1-arm) (antibody, human IgG1, V domains shown, Monovalent 1-arm: second Fab removed, only the Fc portion (CH2-CH3) expressed; human IgG1 Fc; tied by numerical identifier; also called H1H7258B) VH: QVQLVESGGGLVQPGRSLRLSCAASGFTFDDYTMHWVRQGPGKGLEWVSDIGWNSNTIGYADSVKGRFTISRDNARNSLYLQMNSLRPEDTALYYCVKDKSGYGKFQYGLDVWGQGTTVTVSS VL: not shown					24 nM	38 min	0.000302 s⁻¹	12600 M⁻¹ s⁻¹	2.18 nM	40 min	0.00029 s⁻¹	133000 M⁻¹ s⁻¹

Next, values leading:

Kd [1]	koff [1]	kon [1]	t1/2 [1]	Kd [2]	T½ [2]	koff [2]	kon [2]	Kd [3]	T½ [3]	koff [3]	kon [3]	Binder
3.74 nM	0.00063 s⁻¹	168000 M⁻¹ s⁻¹	18.3 min									H1H11797P2 (antibody, human IgG1, V domains shown, human IgG1) VH: QVQLVESGGGVVQPGRSLRLSCAASGFSFSGYGMHWVRQAPGKGLEWVAVTWYDGSNKYYADSVKGRFTISRDNSKNTLYLQMNSLRAEDTAVYYCARDGNWGGPYWYFDLWGRGTLVTVSS VL: DIQMTQSPSSLSASVGDSVTITCRASQSINNYLNWYQQKPGKAPKLLIYTASSLLSGVPSRFSGSGSGTDFTLTISGLHPEDFATYFCQQSFSTPPITFGQGTRLDIK
39.4 nM	0.000801 s⁻¹	20300 M⁻¹ s⁻¹	14.4 min									H1H11804P2 (antibody, human IgG1, V domains shown, human IgG1) VH: QVQLVESGGGVVQPGRSLRLSCAASGFTFISYGMHWVRQAPGKGLEWVAVISYDGSNKYYADSVKGRFTISRDNSKNTLFLQMNSLRAEDTAVYYCAKNYDFWNGYVGYYGMDVWGQGTTVTVSS VL: DIQMTQSPSSLSASVGDSVTITCRASQSINNYLNWYQQKPGKAPKLLIYTASSLLSGVPSRFSGSGSGTDFTLTISGLHPEDFATYFCQQSFSTPPITFGQGTRLDIK
≤ 0.0199 nM	≤ 1e-05 s⁻¹	503000 M⁻¹ s⁻¹	≥ 1160 min									H1H11810P2 (antibody, human IgG1, V domains shown, human IgG1; also called PSMA-VH-11810 (its HCVR)) VH: QVQLVESGGGVVQPGRSLRLSCAASGFTFSSYGMHWVRQAPGKGLEWVAVISYAGNNKYYADSVKGRFTVSRDNSKKTLYLQMNSLRSEDTAVYYCAKDSYYDFLTDPDVLDIWGQGTMVTVSS VL: DIQMTQSPSSLSASVGDSVTITCRASQSINNYLNWYQQKPGKAPKLLIYTASSLLSGVPSRFSGSGSGTDFTLTISGLHPEDFATYFCQQSFSTPPITFGQGTRLDIK
				14.9 nM	30 min	0.000388 s⁻¹	26000 M⁻¹ s⁻¹	0.762 nM	35 min	0.00033 s⁻¹	433000 M⁻¹ s⁻¹	H1H7254P (monovalent 1-arm) (antibody, human IgG1, V domains shown, Monovalent 1-arm: second Fab removed, only the Fc portion (CH2-CH3) expressed; human IgG1 Fc; tied by numerical identifier; also called H1H7254B) VH: EVQLVESGGGVVQPGRSLRLSCAASGFKFDGYTMHWVRQGPGKGLEWVSDIGWNSNTIGYADSVKGRFTISRDNAKNSLYLQMNSLRPEDTALYFCVKDKSGYGKFFIGLDVWGQGTMVTVSS VL: not shown
				243 nM	2 min	0.00624 s⁻¹	25700 M⁻¹ s⁻¹	24.9 nM	2 min	0.00689 s⁻¹	277000 M⁻¹ s⁻¹	H1H7269P (monovalent 1-arm) (antibody, human IgG1, V domains shown, Monovalent 1-arm: second Fab removed, only the Fc portion (CH2-CH3) expressed; human IgG1 Fc; tied by numerical identifier; also called H1H7269B) VH: QVQLVESGGGLVQPGRSLRLSCAASGFKFDDYTMHWVRQGPGKGLEWVSDISWSGGSIDYTDSVKGRFSISRDNAKNSLYLQMNSLRVEDTALYYCVKDKSGYGKYSYGLDVWGQGTTVTVSS VL: not shown
